# Assay results as given in patent publication US20140087995A1 (published 2014).
# Numbered stars: 1 amine (or outer) side, 2 acyl side, 3 side chain; on linkers, the order of the positions; unused ones are H or OH. Bridge positions count the residues as written; N and C are the ends. Side chains are listed from the residue outwards. Ends that are not written are not given here. * marks the point of attachment. C20 diacid = O=C(O)CCCCCCCCCCCCCCCCCCC(=O)*; γGlu = O=C(O)[C@H](CCC(=O)[*:2])N[*:1]; AEEA = NCCOCCOCC(=O)O
# B1: N^ε1-[2-[2-[2-[[(4S)-4-carboxy-4-(19-carboxynonadecanoylamino)butanoyl]amino]ethoxy]ethoxy]acetyl]-[Arg17,Pro21,Pro27]-h-amylin (peptide)
# peptide: K([AEEA-γGlu-C20 diacid])CNTATCATQRLANFLRHSSPNFGAIPSSTNVGSNTY-NH2
# modifications: disulfide 2-7; N-terminus assumed
# SMILES: CC[C@H](C)[C@H](NC(=O)[C@H](C)NC(=O)CNC(=O)[C@H](Cc1ccccc1)NC(=O)[C@H](CC(N)=O)NC(=O)[C@@H]1CCCN1C(=O)[C@H](CO)NC(=O)[C@H](CO)NC(=O)[C@H](Cc1c[nH]cn1)NC(=O)[C@H](CCCNC(=N)N)NC(=O)[C@H](CC(C)C)NC(=O)[C@H](Cc1ccccc1)NC(=O)[C@H](CC(N)=O)NC(=O)[C@H](C)NC(=O)[C@H](CC(C)C)NC(=O)[C@H](CCCNC(=N)N)NC(=O)[C@H](CCC(N)=O)NC(=O)[C@@H](NC(=O)[C@H](C)NC(=O)[C@@H]1CSSC[C@H](NC(=O)[C@@H](N)CCCCNC(=O)COCCOCCNC(=O)CC[C@H](NC(=O)CCCCCCCCCCCCCCCCCCC(=O)O)C(=O)O)C(=O)N[C@@H](CC(N)=O)C(=O)N[C@@H]([C@@H](C)O)C(=O)N[C@@H](C)C(=O)N[C@@H]([C@@H](C)O)C(=O)N1)[C@@H](C)O)C(=O)N1CCC[C@H]1C(=O)N[C@@H](CO)C(=O)N[C@@H](CO)C(=O)N[C@H](C(=O)N[C@@H](CC(N)=O)C(=O)N[C@H](C(=O)NCC(=O)N[C@@H](CO)C(=O)N[C@@H](CC(N)=O)C(=O)N[C@H](C(=O)N[C@@H](Cc1ccc(O)cc1)C(N)=O)[C@@H](C)O)C(C)C)[C@@H](C)O
# notes: analogue of human amylin; also called compound 41
# B2: N^ε-[(4S)-4-carboxy-4-(19-carboxynonadecanoylamino)butanoyl]Lys[Arg1,Arg17,Pro21,Pro27,His35]-h-amylin (peptide)
# peptide: K([γGlu-C20 diacid])RCNTATCATQRLANFLRHSSPNFGAIPSSTNVGSHTY-NH2
# modifications: disulfide 3-8; N-terminus assumed
# SMILES: CC[C@H](C)[C@H](NC(=O)[C@H](C)NC(=O)CNC(=O)[C@H](Cc1ccccc1)NC(=O)[C@H](CC(N)=O)NC(=O)[C@@H]1CCCN1C(=O)[C@H](CO)NC(=O)[C@H](CO)NC(=O)[C@H](Cc1c[nH]cn1)NC(=O)[C@H](CCCNC(=N)N)NC(=O)[C@H](CC(C)C)NC(=O)[C@H](Cc1ccccc1)NC(=O)[C@H](CC(N)=O)NC(=O)[C@H](C)NC(=O)[C@H](CC(C)C)NC(=O)[C@H](CCCNC(=N)N)NC(=O)[C@H](CCC(N)=O)NC(=O)[C@@H](NC(=O)[C@H](C)NC(=O)[C@@H]1CSSC[C@H](NC(=O)[C@H](CCCNC(=N)N)NC(=O)[C@@H](N)CCCCNC(=O)CC[C@H](NC(=O)CCCCCCCCCCCCCCCCCCC(=O)O)C(=O)O)C(=O)N[C@@H](CC(N)=O)C(=O)N[C@@H]([C@@H](C)O)C(=O)N[C@@H](C)C(=O)N[C@@H]([C@@H](C)O)C(=O)N1)[C@@H](C)O)C(=O)N1CCC[C@H]1C(=O)N[C@@H](CO)C(=O)N[C@@H](CO)C(=O)N[C@H](C(=O)N[C@@H](CC(N)=O)C(=O)N[C@H](C(=O)NCC(=O)N[C@@H](CO)C(=O)N[C@@H](Cc1c[nH]cn1)C(=O)N[C@H](C(=O)N[C@@H](Cc1ccc(O)cc1)C(N)=O)[C@@H](C)O)C(C)C)[C@@H](C)O
# notes: analogue of human amylin, extended by Lys at the N-terminus; also called compound 44
# B3: N^-1-[(4S)-4-carboxy-4-(19-carboxynonadecanoylamino)butanoyl]-Gly[Arg1,Arg17,Pro21,Pro27]-h-amylin (peptide)
# peptide: {C20 diacid-γGlu}-GRCNTATCATQRLANFLRHSSPNFGAIPSSTNVGSNTY-NH2
# modifications: disulfide 3-8
# SMILES: CC[C@H](C)[C@H](NC(=O)[C@H](C)NC(=O)CNC(=O)[C@H](Cc1ccccc1)NC(=O)[C@H](CC(N)=O)NC(=O)[C@@H]1CCCN1C(=O)[C@H](CO)NC(=O)[C@H](CO)NC(=O)[C@H](Cc1c[nH]cn1)NC(=O)[C@H](CCCNC(=N)N)NC(=O)[C@H](CC(C)C)NC(=O)[C@H](Cc1ccccc1)NC(=O)[C@H](CC(N)=O)NC(=O)[C@H](C)NC(=O)[C@H](CC(C)C)NC(=O)[C@H](CCCNC(=N)N)NC(=O)[C@H](CCC(N)=O)NC(=O)[C@@H](NC(=O)[C@H](C)NC(=O)[C@@H]1CSSC[C@H](NC(=O)[C@H](CCCNC(=N)N)NC(=O)CNC(=O)CC[C@H](NC(=O)CCCCCCCCCCCCCCCCCCC(=O)O)C(=O)O)C(=O)N[C@@H](CC(N)=O)C(=O)N[C@@H]([C@@H](C)O)C(=O)N[C@@H](C)C(=O)N[C@@H]([C@@H](C)O)C(=O)N1)[C@@H](C)O)C(=O)N1CCC[C@H]1C(=O)N[C@@H](CO)C(=O)N[C@@H](CO)C(=O)N[C@H](C(=O)N[C@@H](CC(N)=O)C(=O)N[C@H](C(=O)NCC(=O)N[C@@H](CO)C(=O)N[C@@H](CC(N)=O)C(=O)N[C@H](C(=O)N[C@@H](Cc1ccc(O)cc1)C(N)=O)[C@@H](C)O)C(C)C)[C@@H](C)O
# notes: analogue of human amylin, extended by Gly at the N-terminus; also called compound 46
# B4: N^ε-[2-[2-[2-[[(4S)-4-carboxy-4-(19-carboxynonadecanoylamino)butanoyl]amino]ethoxy]ethoxy]acetyl]Lys[Arg1,Arg17,Pro21,Pro27,His35]-h-amylin (peptide)
# peptide: K([AEEA-γGlu-C20 diacid])RCNTATCATQRLANFLRHSSPNFGAIPSSTNVGSHTY-NH2
# modifications: disulfide 3-8; N-terminus assumed
# SMILES: CC[C@H](C)[C@H](NC(=O)[C@H](C)NC(=O)CNC(=O)[C@H](Cc1ccccc1)NC(=O)[C@H](CC(N)=O)NC(=O)[C@@H]1CCCN1C(=O)[C@H](CO)NC(=O)[C@H](CO)NC(=O)[C@H](Cc1c[nH]cn1)NC(=O)[C@H](CCCNC(=N)N)NC(=O)[C@H](CC(C)C)NC(=O)[C@H](Cc1ccccc1)NC(=O)[C@H](CC(N)=O)NC(=O)[C@H](C)NC(=O)[C@H](CC(C)C)NC(=O)[C@H](CCCNC(=N)N)NC(=O)[C@H](CCC(N)=O)NC(=O)[C@@H](NC(=O)[C@H](C)NC(=O)[C@@H]1CSSC[C@H](NC(=O)[C@H](CCCNC(=N)N)NC(=O)[C@@H](N)CCCCNC(=O)COCCOCCNC(=O)CC[C@H](NC(=O)CCCCCCCCCCCCCCCCCCC(=O)O)C(=O)O)C(=O)N[C@@H](CC(N)=O)C(=O)N[C@@H]([C@@H](C)O)C(=O)N[C@@H](C)C(=O)N[C@@H]([C@@H](C)O)C(=O)N1)[C@@H](C)O)C(=O)N1CCC[C@H]1C(=O)N[C@@H](CO)C(=O)N[C@@H](CO)C(=O)N[C@H](C(=O)N[C@@H](CC(N)=O)C(=O)N[C@H](C(=O)NCC(=O)N[C@@H](CO)C(=O)N[C@@H](Cc1c[nH]cn1)C(=O)N[C@H](C(=O)N[C@@H](Cc1ccc(O)cc1)C(N)=O)[C@@H](C)O)C(C)C)[C@@H](C)O
# notes: analogue of human amylin, extended by Lys at the N-terminus; also called compound 45
# B5: N^ε1-[(4S)-4-carboxy-4-(19-carboxynonadecanoylamino)butanoyl]-[Arg17,Pro21,Pro27]-h-amylin (peptide)
# peptide: K([γGlu-C20 diacid])CNTATCATQRLANFLRHSSPNFGAIPSSTNVGSNTY-NH2
# modifications: disulfide 2-7; N-terminus assumed
# SMILES: CC[C@H](C)[C@H](NC(=O)[C@H](C)NC(=O)CNC(=O)[C@H](Cc1ccccc1)NC(=O)[C@H](CC(N)=O)NC(=O)[C@@H]1CCCN1C(=O)[C@H](CO)NC(=O)[C@H](CO)NC(=O)[C@H](Cc1c[nH]cn1)NC(=O)[C@H](CCCNC(=N)N)NC(=O)[C@H](CC(C)C)NC(=O)[C@H](Cc1ccccc1)NC(=O)[C@H](CC(N)=O)NC(=O)[C@H](C)NC(=O)[C@H](CC(C)C)NC(=O)[C@H](CCCNC(=N)N)NC(=O)[C@H](CCC(N)=O)NC(=O)[C@@H](NC(=O)[C@H](C)NC(=O)[C@@H]1CSSC[C@H](NC(=O)[C@@H](N)CCCCNC(=O)CC[C@H](NC(=O)CCCCCCCCCCCCCCCCCCC(=O)O)C(=O)O)C(=O)N[C@@H](CC(N)=O)C(=O)N[C@@H]([C@@H](C)O)C(=O)N[C@@H](C)C(=O)N[C@@H]([C@@H](C)O)C(=O)N1)[C@@H](C)O)C(=O)N1CCC[C@H]1C(=O)N[C@@H](CO)C(=O)N[C@@H](CO)C(=O)N[C@H](C(=O)N[C@@H](CC(N)=O)C(=O)N[C@H](C(=O)NCC(=O)N[C@@H](CO)C(=O)N[C@@H](CC(N)=O)C(=O)N[C@H](C(=O)N[C@@H](Cc1ccc(O)cc1)C(N)=O)[C@@H](C)O)C(C)C)[C@@H](C)O
# notes: analogue of human amylin; also called compound 48
# B6: N^α1-[(4S)-4-carboxy-4-(19-carboxynonadecanoylamino)butanoyl]-[Glu14,Arg17,Pro21,Pro27]-h-amylin (peptide)
# peptide: KCNTATCATQRLAEFLRHSSPNFGAIPSSTNVGSNTY
# modifications: C20 diacid-gGlu acylated on the alpha amino group of the N-terminal residue (Lys 1); disulfide Cys2-Cys7; C-terminal amide
# notes: Derivative of human amylin; also called compound 9
# Target: T1, human calcitonin receptor (human, UniProt P30988 25-474)
# T1 sequence (looked up): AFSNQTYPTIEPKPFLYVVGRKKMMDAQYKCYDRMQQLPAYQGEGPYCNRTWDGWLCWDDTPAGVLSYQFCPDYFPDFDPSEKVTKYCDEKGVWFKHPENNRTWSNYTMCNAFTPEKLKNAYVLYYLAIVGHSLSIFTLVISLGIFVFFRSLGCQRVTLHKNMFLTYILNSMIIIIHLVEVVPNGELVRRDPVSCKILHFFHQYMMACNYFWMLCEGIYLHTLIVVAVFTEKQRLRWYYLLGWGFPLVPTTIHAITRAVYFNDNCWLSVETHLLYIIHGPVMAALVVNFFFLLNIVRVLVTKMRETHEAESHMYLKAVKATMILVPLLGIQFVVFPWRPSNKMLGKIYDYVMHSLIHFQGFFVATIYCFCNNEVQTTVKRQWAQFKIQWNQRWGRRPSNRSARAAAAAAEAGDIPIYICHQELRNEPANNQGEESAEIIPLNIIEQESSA
# Assay: cell-based or functional assay
row,hCTR funct. EC50,Binder
1,4.35 nM,B1
2,4.75 nM,B2
3,0.899 nM,B3
4,10.1 nM,B4
5,1.97 nM,B5

# Target: T2, human calcitonin receptor (human, UniProt P30988 25-474)
# T2 construct: whole, on cells; Used as membranes prepared from the transfected cells (Assay VII); also called hCTR; hCT
# T2 sequence (looked up): T1 sequence (looked up)
# Assay: ratio IC50 human calcitonin receptor / IC50 human amylin receptor (Assays VII and V)
# Description: The resulting pellet was resuspended, homogenized and centrifuged (20.000 rpm, 15 min) in a buffer containing 20 mM Na-HEPES and 0.1 mM EDTA (pH 7.4, buffer 2). The resulting pellet was resuspended in buffer 2 and protein concentration was measured (BCA protein Assay, Pierce). The homogenate was kept cold during the whole procedure. The membranes were kept at −80° C. until use. The assay was performed in a 384 well Optiplate (PerkinElmer) in a total volume of 40 ul. Membranes were mixed with SPA beads. Final concentration of membranes 35 ng/μL final and SPA beads was 0.05 mg/well. Test-compounds were dissolved in DMSO and further diluted in assay buffer (50 mM Hepes, pH 7.4, 1 mM CaCl2, 5 mM MgCl₂, 0.1% OA and 0.02% Tween20). […] The final mixture was incubated with shaking at 400 rpm for 120 min at 25° C. prior to centrifugation (1500 rpm, 10 min). Samples were analyzed on TopCounter™ (Packard). The IC₅₀ was calculated using (one site binding competition analysis) GraphPad Prism5 as a measure of receptor affinity.
# Membranes were prepared in the following way; the cells were rinsed with PBS and incubated with Versene for approximately 5 min before harvesting. The cells were flushed with PBS and the cell-suspension was centrifuged for 5 min at 1000 rpm. Cells were homogenized (Ultrathurrax) in a buffer containing 20 mM Na-HEPES and 10 mM EDTA (pH 7.4) and centrifuged at 20.000 rpm for 15 min. The resulting pellet was resuspended, homogenized and centrifuged (20.000 rpm, 15 min) in a buffer containing 20 mM Na-HEPES and 0.1 mM EDTA (pH 7.4, buffer 2). The resulting pellet was resuspended in buffer 2 and protein concentration was measured (BCA protein Assay, Pierce). The homogenate was kept cold during the whole procedure. The membranes were kept at −80° C. until use. Assay was performed in a 384 well Optiplate (PerkinElmer) in a total volume of 40 ul. Membranes were mixed with SPA beads.
row,Ratio hCT/hAmylin binding,Binder
1,8,B6
